# Values of other authors, collected in paper PMC8509922.
# Values joined by “and” are separate entries in the source; they are usually repeats but may differ in a detail not shown here. Equal entries are not always repeated. Where two headings read alike, the source gives them in different places.
# How the values were obtained:
# [1] = target: BmpR1 (Homo sapiens) (UniProt P36894)
# [2] = target: Acvr1 (Homo sapiens) (UniProt Q04771)
# [3] = target: Acvr1 (Homo sapiens) (UniProt Q04771); remark: listed apart in the source
# [4] = target: BmpR1 (Homo sapiens) (UniProt P36894); remark: listed apart in the source
# Sequence of UniProt Q04771 (Q04771 21-123): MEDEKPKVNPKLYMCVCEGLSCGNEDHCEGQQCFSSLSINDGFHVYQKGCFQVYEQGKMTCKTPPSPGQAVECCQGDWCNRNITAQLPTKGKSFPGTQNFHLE
# Sequence of UniProt P36894 (P36894 24-152): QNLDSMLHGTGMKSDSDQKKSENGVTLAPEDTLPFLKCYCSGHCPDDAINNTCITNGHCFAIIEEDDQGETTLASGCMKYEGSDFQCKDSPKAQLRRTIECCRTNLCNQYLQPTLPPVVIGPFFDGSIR
substance,measurement,setting,value
Bmp2 (from UniProt P12643),Kd,[1],0.8 nM
Bmp2/7 heterodimer (from UniProt P12643),Kd,[2],512 nM and 1020 nM
Bmp7 (from UniProt P18075),Kd,[3],500 nM
same,Kd,[4],56 nM
